# Patent US20140020131
# Experiments:
# [1] = target: T1, engineered MS26+ endonuclease, intron-containing gene (ST-LS1 intron) (synthetic construct (Chlamydomonas reinhardtii I-CreI derived)?) (UniProt P05725); assay: cell_activity; details: 3 of 257 T0 maize plants
# T1 sequence: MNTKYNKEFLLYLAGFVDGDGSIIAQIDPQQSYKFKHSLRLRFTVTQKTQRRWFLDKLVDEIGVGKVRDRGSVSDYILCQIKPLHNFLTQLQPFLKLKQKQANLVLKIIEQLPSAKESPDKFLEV
# [2] = system: engineered MS26++ endonuclease (I-CreI-based) (synthetic construct (Chlamydomonas reinhardtii I-CreI derived)?); assay: cell_activity; details: 15 mutations among 344 T0 maize plants as printed; Agrobacterium
sequence,measurement,setting,value
GATGGTGACGTACGTGCCCTAC (double strand) [TS-MS26 target site (maize MS26 exon 5)],activity (% T0 plants mutated),[1],1.2
same,activity (% T0 plants mutated),[2],5.8
